B1: KRT33B (parent)
chain: YQSYFKTIEELQQKILCSKSENAR
B2: OAS1 (parent)
chain: YIGTHEYPHFSHRPSTLQAASTPQ

Variants of: B1
Assay: protein stability index of a GFP-peptide fusion (GPS, HEK-293T) (PSI 1-6); higher = more stable
Settings: c terminus: a fixed tail appended
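Further: lentivirally expressed fusions sorted by FACS into six bins by GFP to DsRed ratio, PSI derived from sequencing read proportions per bin multiplied by bin number.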

Protein stability index of substitutions, site by site:
Q12: M 1.53 | H 1.78 | C 1.58 | A 2.78 | T 1.96 | S 1.96
Q2: T 1.76 | E 3.37 | G 2.14
E21: P 1.8 | N 1.79 | Q 2.1 | R 1.77 | D 1.77 | V 1.65 | S 1.54 | Y 1.75 | H 1.79
A23: G 2.03 | E 2.77 | I 1.9 | D 1.62
S3: F 1.46 | D 2.18 | T 1.9 | E 2.42
S18: D 1.9 | Q 2.26 | E 2.12
Y4: P 1.73 | L 1.92 | I 1.96 | M 2.11
Y1: V 2.68 | A 3.35 | D 4.28 | T 3.28 | K 2.88 | G 3.08 | E 3.49 | W 2.98 | P 3.84 | R 3.15
I8: P 2.78 | C 1.84 | M 1.79 | G 1.78 | Q 2.06
E10: C 1.72 | Y 2.52 | R 1.89
L11: H 2.1 | C 1.53 | G 2.02
K14: Y 1.61 | V 1.65 | P 1.45 | T 1.56 | W 3.51
E9: L 2.17 | I 1.9 | V 1.98 | H 2.25 | Y 2.33 | P 1.66 | R 2.99 | M 1.78 | K 2.9 | F 1.53
K6: E 1.93 | C 3.34 | D 2.08 | Q 1.64
N22: F 1.67 | I 1.71 | C 2.3 | P 1.46 | K 1.8 | T 1.39
K19: M 1.69 | T 2.3 | G 2.08 | S 1.78 | R 2.06 | E 2.56 | Y 1.84
R24: G 2.55 | S 2.07 | N 2.02 | Y 1.3 | V 1.98 | T 1.76 | E 1.88
Q13: K 1.85 | R 1.68 | W 2.6 | N 2.19 | S 1.86 | A 1.79 | T 2.23
C17: P 1.77 | R 2.14 | E 2.49 | D 1.65 | Q 1.89 | I 2.07 | H 2.31
T7: P 1.85 | V 2.25 | Q 1.84
I15: W 1.71 | H 2.52 | P 2.3 | N 1.85 | M 2.07
S20: K 2.05 | W 1.56 | Y 1.95 | P 1.99 | Q 1.81 | C 1.95 | V 2.04
L16: G 1.92 | M 1.85 | R 2.49 | F 1.93 | N 1.84 | E 1.73 | P 2.12 | V 2.89 | Q 1.88
F5: G 2.92 | L 2.07 | I 2.12 | R 2.53 | Y 2.32

Variants of: B2
Assay: as above
Settings: c terminus: a fixed tail appended

Protein stability index, by site and new letter:
R13: L 1.66 | E 2.19 | M 2.19 | A 2.58 | Y 2.09 | D 2.52
F10: Q 2.41 | Y 1.79 | D 3.14 | W 1.89 | N 2.43 | G 2.88 | A 2.57 | T 2.48 | I 2.27 | S 2.9 | C 2.24 | K 2.73
S11: R 2.09 | P 2.44 | G 2.14 | Y 3.04 | E 2.56 | D 2.64 | N 2.31 | F 3.55
Q18: S 1.65 | A 2.85 | H 2.38 | K 2.04 | W 2.75 | D 1.71 | N 2.34 | E 2.22
G3: D 1.75 | K 2.48 | T 2.29 | H 1.89 | I 2.6 | M 1.86 | C 1.97 | N 2.3 | W 1.83 | P 2.28 | Q 2.32
P8: M 1.91 | N 2.05 | E 2.79 | T 1.54 | V 2 | G 1.39
S15: Y 1.79 | Q 1.99 | R 1.96 | F 2.67 | D 2.1 | E 2.05
P23: N 2.54 | W 1.97 | K 1.91 | F 1.72 | M 1.89 | E 2.37 | R 1.86 | T 2.48
H12: C 2.64 | Q 2.23 | T 2.03 | E 2.25 | D 2.49 | F 2.21 | L 2.39
I2: C 1.87 | S 2.49 | Y 3.27 | W 2.66 | E 4.18 | K 3.47
Y7: V 2.12 | D 3.16 | F 1.68 | R 2.12 | K 3.34 | C 2.49
A19: H 1.89 | G 1.98 | T 1.72 | K 1.68 | I 2.04 | Q 2.04 | M 2.15 | C 2.07 | L 1.85 | R 2.29 | E 2.58
Q24: I 1.92 | A 1.66 | D 2.06 | H 2.15 | W 2.25 | V 2.2 | T 2.04 | E 2.25 | N 2.07
E6: D 1.92 | Y 1.89 | P 1.5 | Q 1.68 | H 2.32 | L 2.99 | W 3.29 | K 2.06 | G 1.81 | F 3.8 | N 2.18
P14: D 2.1 | R 1.9 | T 1.98 | Y 2.09 | Q 2.22 | F 1.49 | S 1.64 | M 1.74
T4: G 2.27 | E 2.55 | V 1.76 | W 2.89 | Q 1.89 | C 2.12 | K 2.15 | M 2.15
H5: L 2.12 | Q 2.38 | M 2.14 | Y 1.83 | S 1.94 | D 2.52 | T 2.3 | A 1.72
L17: F 1.83 | P 2.5 | Y 2.14 | Q 2.29 | D 2.41 | R 2 | G 2.17 | S 2.12 | V 2.3 | E 2.06 | K 1.79 | A 1.84
T22: V 1.93 | K 2.35 | A 2.51 | F 1.93 | P 2.17 | E 1.8 | H 1.6
A20: V 1.79 | N 2.08 | Q 1.93 | D 1.75 | T 2.04 | G 1.88 | W 2.43 | K 2.17 | S 2.11 | M 1.93 | F 1.73
S21: N 1.85 | K 1.81 | I 1.97 | C 2.77 | V 1.89 | G 2.23
Y1: K 3.52 | V 3.64 | N 4.04 | D 4.09 | R 3.84 | E 4.08 | H 3.64
H9: N 2.4 | I 2.18 | Q 2.12 | D 2.75 | Y 2.83 | E 3.17 | P 1.44 | A 1.87 | R 2.08 | F 2.2 | V 1.78
T16: Y 1.98 | S 2.34 | G 1.62 | I 1.6 | V 1.73
